Results published in patent US20050262592.

Tested on: duckweed-produced human microplasminogen
Sequence (chain, as listed by the source): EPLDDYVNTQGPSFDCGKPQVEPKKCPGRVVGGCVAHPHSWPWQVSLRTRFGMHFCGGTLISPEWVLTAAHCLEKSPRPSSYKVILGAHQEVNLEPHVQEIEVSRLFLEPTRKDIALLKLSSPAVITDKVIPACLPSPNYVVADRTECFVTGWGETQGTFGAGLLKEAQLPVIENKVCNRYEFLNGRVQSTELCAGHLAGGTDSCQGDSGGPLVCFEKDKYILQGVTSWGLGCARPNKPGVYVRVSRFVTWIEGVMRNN

Substance: urokinase
- Western blot: production of the B chain of plasmin: Western blot analysis confirmed the production of the B chain of plasmin following activation of duckweed-produced microplasminogen with either urokinase or tPA
